assay: label from the status in PepcDB records

**Q.** Which protein production does the source give for “MKKSINEQKTIFIILLSNIFVAFLGIGLIIPVMPSFMKIMHLSGSTMGYLVAAFAISQLITSPFAGRWVDRFGRKKMIILGLLIFSLSELIFGLGTHVSIFYFSRILGGVSAAFIMPAVTAYVADITTLKERSKAMGYVSAAISTGFIIGPGAGGFIAGFGIRMPFFFASAIALIAAVTSVFILKESLSIEERHQLSSHTKESNFIKDLKRSIHPVYFIAFIIVFVMAFGLSAYETVFSLFSDHKFGFTPKDIAAIITISSIVAVVIQVLLFGKLVNKLGEKRMIQLCLITGAILAFVSTVMSGFLTVLLVTCFIFLAFDLLRPALTAHLSNMAGNQQGFVAGMNSTYTSLGNIFGPALGGILFDLNIHYPFLFAGFVMIVGLGLTMVWKEKKNDAAALN” here?
**A.** Its protein production is “failed”.

**Q.** With “MKKSLLMLLLSAATLSSIEAQTIQQMKAGGPWPVRAAFKTDTVGMNGSKYNPADLLRQAYDATDKDLRNVSADKDGRIAGRKAGSKAERSEMAVYSFALTAEHFAKGDIEVFGQGRMSLWLDDKQIGIADSPNSKGDTTLRFSASLSLVPGTHHLLLKSLLLEGDTTATDVRVVLKPKTARDSSALYPNYTGKERLSLKHMMSGTFLSGGSLSPTGKYVLTSYRVSRDNKPAVTYNQLRDAKGNILLNLNEKEALGWMPHEDMLMVIRKEGNAKRLVAFDPMGKGEKTLVSNLPESQFRMSPDARYYLFYKQEKGPGKDPLFIRHLDPDDRQSDWRDRSQIYLLNAESGVYGPLTFGYSTTYIYDIAPDSKRALIGTLSTDWTRRPFRFATIMEYNMETGKADTLITRDPSIDAIQYTPDGKHLIVMGSADAFGNIGLNLKSGVTPNSYDKQFFLFDLSTRKATALTKNFNPSVSAGRFDRKNNYYYFRAENGSRKQLYRLDLKTLEISQIQTGEDVVQWFGVAADNGAVWYSGQSANNADRLYRLDGTKGKLVWDLSAEKLANIDFTPARDWNYTAPDGTVVEGWYYLPPQFDPSKKYPMLVYYYGGTSPINRTLEGHYSLAMYAAQGYVVYTLNPSGTTGYGQEYAARHVNAWGDRTADEIIGATKEFIRTHSFVNGKKVGCFGASYGGFMTQYLQTKTDIFAAAVSHAGISSISNYWGSGYWGMGYSTVASTDSYPWNNPDLYAGHSPLFRADKIHTPLLLLHGSVDTNVPTAESVNLYNALKILGREVEFIEFTEQDHFILEPERRIRWTNSICAWFARWLQDDPTWWNELYPPVNL” as the sequence, how does the protein production read?
**A.** The protein production was “failed”.

**Q.** With “MKKTFNLVATAAAGIEAVVGKELRNLGLDCQVENGRVLFKGNIETIAKSNLWLRSADRIKIVVGEFPARTFEELFQGVYALDWENYLPLGCQFPVAKAKSVKSKLHNEPSIQGITKKAIVKKLQHYFHRPDSVPLPENGPEFKIEISLLKDQARVMIDTTGPSLFKRGYRTEKGGAPIKENMAAAIILLSNWFPDKPFVDPTCGSGTFCIEAAMIGMNIAPGFNRDFAFEEWPWVDEALVTRVRNEADEQADYDIQLDISGFDFDGRMVEIARKNAREVGLEDVVKLKQMRLQDFKTNKINGVLISNPPYGERLLDDKAVDILYNEMGETFAPLKTWSQFILTNDTDFEQKFGRKADKKRKLYNGSLKVDLYQFYGQRVKRVLR” as the sequence, how does the protein production read?
**A.** The protein production was “not failed”.

**Q.** With “MKKTIEKILKDIIDATSITDMCDKSVCHWLQPVVDTIVFPEYYLFSSNHLKENIISLLIVLGVLLIFGLIVEEMMKRIFRKNEEKYMWVHKIFEKVIVAFLLFYSMKTIIYFIALKHHSF” as the sequence, how does the protein production read?
**A.** Its protein production is “failed”.

**Q.** With “MKKTPIYVEISIQAEMERLWRYTQDPTLHRQWDLRFTDITYLKRRPGEPQRFLYETRIGFGLEHHHHHH” as the sequence, how does the protein production read?
**A.** The protein production was “not failed”.

**Q.** For “MKKTTLVLSALALSIGFAMGPVSSVVAAETAASSSQQLPSLAPMLEKVMPSVVSINVEGSAPVSSAGARGMPPQFQQFFGDNSPFCQDGSPFQGSPMCQGDLGGLGQGMPSKREFRSLGSGVIIDAGKGYVVTNNHVVDNANKISVKLSDGRSFDAKVIGKDPRTDIALLQLKDAKNLTAIKIANSDQLRVGDYTVAIGNPYGLGETVTSGIVSALGRSGLNVENYENFIQTDAAINRGNSGGALINLNGELIGINTAILAPDGGNIGIGFAIPSNMVKNLTSQMVEFGQVKRGELGIMGTELNSELAKAMKVDAQKGAFISQVVPKSAAAKAGIKAGDIIVSMNGKAINSFAGFRAEIGTLPVGSKMTLGLLRDGKPINVDVVLEQSSHSQVESGNLYTGIEGAELSNSDVSGKKGVKVDSVKPGTAAARIGLKKGDIIMGINQQPVQNLGELRKILDAKPPVLALNIQRGDTSLYLLMQ”, which protein production is on record?
**A.** The protein production was “failed”.

From a protein production outcome set (Wang et al. 2014)
